Assay results: paper PMC2994726 (PLoS ONE, 2010)

How the values were obtained:
[1] = target: Luc-tagged rat AT1a receptor DRY/AAY truncated after serine 331 (DRY/AAY 331Δ) (rat) (UniProt P25095); experiment: FRET or BRET; BRET2 in live HEK293 cells co-transfected with Luc-tagged rAT1aR and GFP2-β-arrestin2; dose-response to SII Ang II, read 15 min after agonist addition
[2] = target: Luc-tagged rat AT1a receptor DRY/AAY, full length (rat) (UniProt P25095); experiment: as above
[3] = target: Luc-tagged rat AT1a receptor DRY/AAY truncated after serine 331 (DRY/AAY 331Δ) (rat) (UniProt P25095); experiment: FRET or BRET; BRET2 in live HEK293 cells co-transfected with Luc-tagged rAT1aR and GFP2-β-arrestin2; dose-response to Ang II, read 15 min after agonist addition
[4] = target: Luc-tagged rat AT1a receptor DRY/AAY, full length (rat) (UniProt P25095); experiment: as above
[5] = target: FLAG-tagged rat AT1a receptor DRY/AAY truncated after serine 331 (DRY/AAY 331Δ) (rat) (UniProt P25095); experiment: radioligand binding; whole-cell heterologous competition on transfected COS-7 cells: 1 nM 3H-Ang II tracer and increasing unlabeled SII Ang II, 3 h at 4°C; pKi calculated from Ang II KD values of experiments run in parallel
[6] = target: FLAG-tagged rat AT1a receptor DRY/AAY, full length (rat) (UniProt P25095); experiment: as above
[7] = target: T1, FLAG-tagged rat AT1a receptor (rAT1aR), WT, full length (rat, UniProt P25095 1-359); experiment: as above; details: one partner purified
T1 construct: Angiotensin II type 1a receptor (AT1aR), rat, full length; also called AT1R; Angiotensin II type 1 receptor; source: COS-7, transiently transfected, on whole cells; not shown: FLAG, N-terminal, kept
T1 sequence (looked up): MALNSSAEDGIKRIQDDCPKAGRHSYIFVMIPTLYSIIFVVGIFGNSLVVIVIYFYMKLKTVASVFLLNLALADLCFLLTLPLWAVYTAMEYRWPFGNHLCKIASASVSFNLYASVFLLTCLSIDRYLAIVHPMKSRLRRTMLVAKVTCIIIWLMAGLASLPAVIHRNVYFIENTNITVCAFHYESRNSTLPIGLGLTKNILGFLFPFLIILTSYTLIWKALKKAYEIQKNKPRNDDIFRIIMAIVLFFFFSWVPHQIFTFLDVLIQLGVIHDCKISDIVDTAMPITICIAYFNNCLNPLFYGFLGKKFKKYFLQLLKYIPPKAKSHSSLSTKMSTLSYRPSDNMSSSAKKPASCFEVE

[8] = target: T2, FLAG-tagged rat AT1a receptor WT truncated after serine 331 (WT 331Δ) (rat, UniProt P25095 1-331); experiment: as above; details: one partner purified
T2 construct: source: COS-7, transiently transfected, on whole cells; not shown: FLAG, N-terminal, kept
T2 sequence (looked up): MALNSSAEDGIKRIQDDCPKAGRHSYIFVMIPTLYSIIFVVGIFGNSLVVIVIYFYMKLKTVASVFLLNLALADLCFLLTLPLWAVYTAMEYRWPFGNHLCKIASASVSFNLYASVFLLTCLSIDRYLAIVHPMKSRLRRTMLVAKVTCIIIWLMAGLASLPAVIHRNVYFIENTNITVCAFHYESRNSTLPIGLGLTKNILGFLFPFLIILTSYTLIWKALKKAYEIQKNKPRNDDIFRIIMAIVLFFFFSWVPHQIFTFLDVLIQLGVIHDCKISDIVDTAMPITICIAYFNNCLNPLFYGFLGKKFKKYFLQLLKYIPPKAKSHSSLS

For “GFP2-tagged β-arrestin2 (from UniProt P32121 1-409) (natural protein)”, the pEC50 of SII Ang II for induced recruitment (BRET2, from normalized curves) [1] was 7, the pEC50 of SII Ang II for induced recruitment (BRET2) [2] was 7.5 and the pEC50 of Ang II for induced recruitment (BRET2) [3] was 8.2. For the same molecule, the pEC50 of Ang II for induced recruitment (BRET2) [4] was 8.2.

Sar1-Ile4-Ile8 (SII) Ang II (peptide) was tested, and the pKi [5] was 6.2 and the pKi [6] was 6.1.

With GRVIIHPI (sarcosine at position 1 (Sar1)) [Sar1-Ile4-Ile8 (SII) Ang II] the pKi [7] was 5.9 and the pKi [8] was 6.
